Measured values published in patent US20180368743, “GRAPHENE-BASED NANOSENSOR FOR IDENTIFYING TARGET ANALYTES” (THE TRUSTEES OF COLUMBIA UNIVERSITY IN THE CITY OF NEW NEW …, published 2018).

Assays:
Conditions in all cases: G4
Insulin = Insulin (Homo sapiens, UniProt P01308;P01308 P01308:25-54,P01308:90-110); assay: graphene FET, PBS pH 7.4, Hill-Langmuir fit of Dirac voltage shift
Description: The nanosensor insulin measuring capabilities were subsequently tested in PBS buffer. Insulin solutions of increasing concentrations from 100 pM to […] were sequentially introduced to the PDMS chamber of the nanosensor. The binding of insulin to the IGA3 aptamer was allowed to reach equilibrium before the replenishment of sample solutions.
The binding of insulin and aptamer was allowed to reach equilibrium for 10 min before the replenishment of higher concentration insulin solution. Thus, the dipping time of graphene in solutions was increased with the ongoing experiment. The slight decrease in the minimum of Ids (Ids,min,) in the transfer characteristic curve, observed in FIG. 99A was considered as a result of the increase in the ionic strength caused by the evaporation of PBS buffer (150 mM NaCl) with increasing dipping time.
Further, the equilibrium dissociation constant (KD) for the IGA3 aptamer and insulin with different VDirac at corresponding insulin concentrations was evaluated using the aptamer-functionalized GFETs. […] The change in VDirac, denoted as ΔVDirac, is plotted as a function of insulin concentrations with error bars obtained from three different devices (FIG. 99B).

Somatostatin = biological target: T1, Somatostatin (Homo sapiens, UniProt P61278 P61278:103-116); assay: graphene FET current change <1.3% at up to 1 uM vs 8.5% for insulin; normalized response <0.192
T1 chain: AGCKNFFWKTFTSC
Description: (§1) To examine the specificity of the nanosensor to insulin over other related analogues that might interfere with the detection of insulin, glucagon and somatostatin, which were secreted by the pancreatic islet alpha and delta cells, respectively, were evaluated as negative control analytes. This is because glucagon [molecular weight (MW): 3.5 kD, PI: 6.2], promoting […] by the liver and together with somatostatin (MW: 1.63 kD, PI: 5.6) regulating the secretion of insulin, share similar physical properties with insulin, which can affect the sensing performance. The functionalized graphene nanosensor was first exposed to somatostatin solutions prior to the introduction of insulin. The change in Ids, denoted as ΔIds, was recorded throughout the experiment and compared as the response of the aptameric nanosensor to the given solutions. To minimize errors caused by device-to-device nonuniformity, the time-resolved selective response as the ratio of ΔIds to ΔIds,max (the maximum value of ΔIds) was calculated:
where Ids,PBS is the Ids measured in fresh PBS buffer. […] On the contrary, the calculated ΔIds/ΔIds,max value increased and reached 1.0 at […] insulin with stepwise increments in the insulin concentration (FIG. 101A).
Additionally, a similar real-time monitoring control experiment was conducted with glucagon (FIG. 107). […]

Glucagon = Glucagon (Homo sapiens, UniProt P01275 P01275:53-81); assay: graphene FET current change <1.3% at up to 1 uM vs 8.5% for insulin
Description: as §1
Additionally, a similar real-time monitoring control experiment was conducted with glucagon (FIG. 107). […] Here, ΔIds,S(C)=Ids,S(C)−Ids,PBS, where Ids,S(C) is the Ids measured at the binding equilibrium for given solutions (insulin/glucagon/somatostatin) at representative tested concentrations.

Insulin, sequence (P01308 25-54, chain 1 of 2): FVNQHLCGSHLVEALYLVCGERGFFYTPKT
Insulin, sequence (P01308 90-110, chain 2 of 2): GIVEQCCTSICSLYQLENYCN
Glucagon, sequence (P01275 53-81, one chain of several): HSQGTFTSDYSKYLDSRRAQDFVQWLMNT

In the case of GGTGGTGGGGGGGGTTGGTAGGGTGTCTTC (ssDNA, 5'-NH2 (coupled to PASE on graphene)) [IGA3 insulin aptamer], the Kd (Insulin) is reported as 35 nM, the binding result (Somatostatin) is reported as “no binding” and the binding result (Glucagon) is reported as “no binding”.
